Measured values taken from paper PMC10462243 (Research Square, 2023).

B1: Plk4 CPB(581–808), purified (domain or fragment, UniProt O00444 581-808, looked up)
chain: GYQNRTLRSITSPLVAHRLKPIRQKTKKAVVSILDSEEVCVELVKEYASQEYVKEVLQISSDGNTITIYYPNGGRGFPLADRPPSPTDNISRYSFDNLPEKYWRKYQYASRFVQLVRSKSPKITYFTRYAKCILMENSPGADFEVWFYDGVKIHKTEDFIQVIEKTGKSYTLKSESEVNSLKEEIKMYMDHANEGHRICLALESIISEEERKTRSAPFFPIIIGRKPG
notes: Plk4 cryptic polo-box, residues 581–808; Two copies for each Vpr•VprBP in the SEC complex; The construct has a TEV site
B2: Vpr (insect cells, co-expressed with VprBP WD40-AR) (natural protein)
chain: MEQAPEDQGPQREPYNEWTLELLEELKSEAVRHFPRIWLHNLGQHIYETYGDTWAGVEAIIRILQQLLFIHFRIGCRHSRIGVTRQRRARNGASRS
notes: HIV-1 Vpr ORF, expressed on its own from a p10 promoter in the dual construct; also called 11-kDa Vpr; source: Tni-FNL insect cells, co-expressed with His-MBP-TEV-VprBP, purified (HisTrap, SEC)

What was measured:
Assay in all cases: SEC; purified Vpr, VprBP(1057–1507), Plk4 CPB(581–808) and DDB1; HisTrap eluate of VprBP and Vpr digested with TEV, mixed with Plk4 CPB; SEC in 20 mM Tris-HCl pH 7.5, 100 mM NaCl, 10% glycerol; stoichiometry estimated from Coomassie-stained protein intensity
[1] = biological target: T1, Vpr•VprBP WD40-AR complex ( | HIV-1 (pNL4–3), UniProt Q9Y4B6;P12520); details: both partners purified
T1 construct: VprBP (DCAF1) WD40 domain and acidic region; HIV-1 Vpr ORF; Chains as m38 and m37, formed by co-expression before Plk4 CPB was added; also called VprBP (WD40-AR)•Vpr complex; source: Tni-FNL insect cells, co-expressed, purified (HisTrap, TEV); not shown: His, N-terminal, cleaved; MBP, N-terminal, cleaved; copies: 1 + 1

[2] = biological target: the molecule itself
[3] = biological target: B1; details: both partners purified

T1 sequence (Q9Y4B6 1057-1507, one chain of several): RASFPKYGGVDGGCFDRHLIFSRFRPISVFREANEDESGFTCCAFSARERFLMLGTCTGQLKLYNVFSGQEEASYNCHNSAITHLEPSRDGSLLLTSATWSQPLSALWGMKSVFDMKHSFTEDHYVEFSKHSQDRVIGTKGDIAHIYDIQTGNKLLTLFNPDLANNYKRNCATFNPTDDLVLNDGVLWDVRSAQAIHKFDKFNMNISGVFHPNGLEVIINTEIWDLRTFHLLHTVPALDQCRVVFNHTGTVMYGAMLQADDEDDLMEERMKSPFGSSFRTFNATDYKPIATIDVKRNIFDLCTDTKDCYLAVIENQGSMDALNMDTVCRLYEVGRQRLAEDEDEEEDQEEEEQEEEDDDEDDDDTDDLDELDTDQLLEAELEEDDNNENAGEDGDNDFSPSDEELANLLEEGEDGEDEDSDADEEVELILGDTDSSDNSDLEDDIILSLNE

Q: For B1, which “stoichiometry N” value [1] is on record?
A: ~2

Q: Does B1 bind [2]?
A: binds

Q: Does B2 bind [3]?
A: binds
